Measured values: US20220235109A1 (CUGENE, published 2022)
Changes are numbered by the printed parent chain. Numbers in names are those of the source.

Tests used:
[1] = target: T1, IL-2Rβγ on human CD8+ T cells, NK cells and CD4+ T cells (human, UniProt P14784 27-551; P31785 23-369); assay: cell-based or functional assay
T1 sequence (looked up) 1: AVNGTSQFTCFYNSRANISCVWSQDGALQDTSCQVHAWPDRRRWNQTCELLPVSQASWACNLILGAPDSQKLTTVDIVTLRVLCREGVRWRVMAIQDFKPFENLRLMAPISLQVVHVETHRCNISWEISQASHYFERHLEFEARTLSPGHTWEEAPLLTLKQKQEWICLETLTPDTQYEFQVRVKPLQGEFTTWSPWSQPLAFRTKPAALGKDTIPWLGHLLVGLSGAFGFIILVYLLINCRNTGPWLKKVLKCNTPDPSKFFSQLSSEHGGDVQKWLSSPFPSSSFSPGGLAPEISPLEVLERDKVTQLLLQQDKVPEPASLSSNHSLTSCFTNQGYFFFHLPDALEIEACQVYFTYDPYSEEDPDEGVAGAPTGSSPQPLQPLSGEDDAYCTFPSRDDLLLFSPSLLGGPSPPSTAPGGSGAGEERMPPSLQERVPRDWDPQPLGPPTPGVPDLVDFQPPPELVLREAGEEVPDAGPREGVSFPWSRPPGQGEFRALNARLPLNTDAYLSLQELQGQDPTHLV
T1 sequence (looked up) 2: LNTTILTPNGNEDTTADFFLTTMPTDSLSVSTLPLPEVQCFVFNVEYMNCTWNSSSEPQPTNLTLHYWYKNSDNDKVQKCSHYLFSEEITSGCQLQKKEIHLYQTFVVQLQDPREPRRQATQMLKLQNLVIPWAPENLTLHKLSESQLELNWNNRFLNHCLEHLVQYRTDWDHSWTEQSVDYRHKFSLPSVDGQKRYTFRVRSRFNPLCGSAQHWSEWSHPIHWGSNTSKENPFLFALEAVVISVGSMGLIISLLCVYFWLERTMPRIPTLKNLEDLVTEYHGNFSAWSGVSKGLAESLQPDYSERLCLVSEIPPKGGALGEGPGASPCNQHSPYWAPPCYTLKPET

[2] = target: T2, IL-2Rα (CD25) on human CD4+ Treg cells (human, UniProt P01589 22-272); assay: cell-based or functional assay
T2 sequence (looked up): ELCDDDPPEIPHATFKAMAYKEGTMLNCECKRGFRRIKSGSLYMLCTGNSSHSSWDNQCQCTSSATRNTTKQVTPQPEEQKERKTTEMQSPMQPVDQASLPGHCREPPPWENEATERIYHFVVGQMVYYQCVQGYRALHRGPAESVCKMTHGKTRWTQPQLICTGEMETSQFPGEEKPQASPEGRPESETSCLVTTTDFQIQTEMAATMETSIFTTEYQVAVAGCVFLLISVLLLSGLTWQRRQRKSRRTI

[3] = target: T1, IL-2Rβγ on human CD8+ T cells, NK cells …; assay: cell-based or functional assay; remark: listed apart in the source
IL-2Rα-ECD = target: T3, IL-2Rα-ECD (human, UniProt P01589 22-240); assay: ELISA, IL-2Rα-ECD coated
T3 construct: coated on ELISA plates at 0.1 µg/well; also called CD25; receptor subunit α
T3 sequence: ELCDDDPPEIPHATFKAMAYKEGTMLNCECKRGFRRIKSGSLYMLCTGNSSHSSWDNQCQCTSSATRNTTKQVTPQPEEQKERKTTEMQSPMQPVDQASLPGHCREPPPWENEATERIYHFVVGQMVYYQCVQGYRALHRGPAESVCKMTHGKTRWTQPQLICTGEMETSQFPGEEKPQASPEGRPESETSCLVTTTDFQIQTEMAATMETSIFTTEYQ
Protocol: A panel of IL-2 muteins was expressed as C-terminal fusions to the Fc homodimer of Fc heterodimer and screened for binding to IL-2Rα in enzyme-linked immunosorbent assay (ELISA). Briefly, IL-2Rα-ECD (SEQ ID NO: 5) was coated onto the wells of Nunc Maxisorp 96-well microplates at 0.1 μg/well. After overnight incubation at 4° C. and blocking with superblock (Thermo Fisher), 3-fold serial dilutions of IL-2 Fc fusion proteins starting at 100 nM were added to each well at 100 μI/well. Following one-hour incubation at room temperature, 100 μl/well of goat anti-human IgG Fc-HRP (1:5000 diluted in diluent) were added to each well and incubated at room temperature for 1 hour. Wells were thoroughly aspirated and washed three times with PBS/0.05% Tween-20 following each step. Finally, 100 μl TMB substrate was added to each well; the plate was developed at room temperature in the dark for 10 minutes, and 100 μl/well of stop solution (2N Sulfuric acid, Ricca Chemical) was added. Absorbance was determined at 450 nm and curves were fit using Prism software (Graph Pad).

B1: P-0732 (Fc fusion)
chain: DKTHTCPPCPAPEAAGAPSVFLFPPKPKDTLMISRTPEVTCVVVDVSHEDPEVKFNWYVDGVEVHNAKTKPREEQYNSTYRVVSVLTVLHQDWLNGKEYKCKVSNKALPAPIEKTISKAKGQPREPQVCTLPPSREEMTKNQVSLWCLVKGFYPSDIAVEWESNGQPENNYKTTPPVLDSDGSFFLYSKLTVDKSRWQQGNVFSCSVMHEALHNHYTQKSLSLSPGGGGSGGGSAPTSSSTKKTQLQLEHLLLDLQMILNGINNYKNPKLTRMLTFKFYMPKKATELKHLQCLEEELKRLEEVLNLAQSKNFHLRPRDLISNINVIVLELKGSETTFMCEYADETATIVEFLNRWITFIESIISTLT
Fc: DKTHTCPPCPAPEAAGAPSVFLFPPKPKDTLMISRTPEVTCVVVDVSHEDPEVKFNWYVDGVEVHNAKTKPREEQYNSTYRVVSVLTVLHQDWLNGKEYKCKVSNKALPAPIEKTISKAKGQPREPQVYTLPPCREEMTKNQVSLSCAVKGFYPSDIAVEWESNGQPENNYKTTPPVLDSDGSFFLVSKLTVDKSRWQQGNVFSCSVMHEALHNHYTQKSLSLSPG
[1]
  Ki67 expression on human CD8+ T cells (EC50 against P-0704): > 100 fold

B2: P-0837 (antibody, mouse IgG1, kappa)
heavy 1: EVQLQESGPGLVKPSQSLSLTCSVTGYSITSSYRWNWIRKFPGNRLEWMGYINSAGISNYNPSLKRRISITRDTSKNQFFLQVNSVTTEDAATYYCARSDNMGTTPFTYWGQGTLVTVSSAKTTPPSVYPLAPGSAAQTNSMVTLGCLVKGYFPEPVTVTWNSGSLSSGVHTFPAVLQSDLYTLSSSVTVPSSTWPSQTVTCNVAHPASSTKVDKKIVPRDCGCKPCICTVPEVSSVFIFPPKPKDVLTITLTPKVTCVVVAISKDDPEVQFSWFVDDVEVHTAQTKPREEQINSTFRSVSELPIMHQDWLNGKEFKCRVNSAAFGAPIEKTISKTKGRPKAPQVYTIPPPKKQMAKDKVSLTCMITNFFPEDITVEWQWNGQPAENYKNTQPIMKTDGSYFVYSKLNVQKSNWEAGNTFTCSVLHEGLHNHHTEKSLSHSPG
heavy 2: not shown
light: DIVMTQGTLPNPVPSGESVSITCRSSKSLLYSDGKTYLNWYLQRPGQSPQLLIYWMSTRASGVSDRFSGSGSGTDFTLKISGVEAEDVGIYYCQQGLEFPTFGGGTKLELKRTDAAPTVSIFPPSSEQLTSGGASVVCFLNNFYPRDINVKWKIDGSERQNGVLNSWTDQDSKDSTYSMSSTLTLTKDEYERHNSYTCEATHKTSTSPIVKSFNRNEC
[2]
  pSTAT5 EC50 in Treg cells (human PBMC): 0.45 pM

B3: P-0838 (antibody, mouse IgG1, kappa)
heavy 1: B2 heavy 1
heavy 2: not shown
light: B2 light
[2]
  pSTAT5 EC50 in Treg cells (human PBMC): 0.36 nM
  pSTAT5 EC50 in Treg cells, fold against P-0837: 800 fold
[1]
  pSTAT5 EC50 in CD8+ T cells (human PBMC): 4.6 nM

B4: P-0782 (antibody, mouse IgG1, kappa)
heavy 1: B2 heavy 1
heavy 2: not shown
light: B2 light
[2]
  pSTAT5 EC50 in Treg cells (human PBMC): 4.5 nM
  pSTAT5 EC50 in Treg cells, fold against P-0837: 10000 fold
[1]
  pSTAT5 EC50 in CD8+ T cells (human PBMC): 4.6 nM

B5: P-0880 (antibody, human IgG1, kappa)
heavy 1: not shown
heavy 2: EVQLVESGGGLVKPGGSLRLSCAASGFTFSSYDMSWVRQAPGKGLEWVATISGGGSYTYYPDSVKGRFTISRDNAKNSLYLQMNSLRAEDTAVYYCASPDSSGVAYWGQGTLVTVSSASTKGPSVFPLAPSSKSTSGGTAALGCLVKDYFPEPVTVSWNSGALTSGVHTFPAVLQSSGLYSLSSVVTVPSSSLGTQTYICNVNHKPSNTKVDKKVEPKSCDKTHTCPPCPAPEAAGAPSVFLFPPKPKDTLMISRTPEVTCVVVDVSHEDPEVKFNWYVDGVEVHNAKTKPREEQYNSTYRVVSVLTVLHQDWLNGKEYKCKVSNKALPAPIEKTISKAKGQPREPQVCTLPPSREEMTKNQVSLSCAVKGFYPSDIAVEWESNGQPENNYKTTPPVLDSDGSFFLVSKLTVDKSRWQQGNVFSCSVMHEALHNHYTQKSLSLSPG
light: DIVMTQSPLSLPVTPGEPASITCKASQDVETVVAWYLQKPGQSPRLLIYWASTRHTGVPDRFSGSGSGTDFTLKISRVEAEDVGVYYCQQYSRYPWTFGQGTKLEIKRTVAAPSVFIFPPSDEQLKSGTASVVCLLNNFYPREAKVQWKVDNALQSGNSQESVTEQDSKDSTYSLSSTLTLSKADYEKHKVYACEVTHQGLSSPVTKSFNRGEC
[3]
  Ki67 EC50 (nM), CD8+ T: 1.7 nM
  Ki67 EC50 (nM), NK: 3.6 nM
  pSTA5 EC50 (pM), CD8+ T: 73 pM
  pSTA5 EC50 (pM), NK: 643 pM

B6: P-0882 (antibody, human IgG1, kappa)
heavy 1: EVQLVESGGGLVKPGGSLRLSCAASGFTFSSYDMSWVRQAPGKGLEWVATISGGGSYTYYPDSVKGRFTISRDNAKNSLYLQMNSLRAEDTAVYYCASPDSSGVAYWGQGTLVTVSSASTKGPSVFPLAPSSKSTSGGTAALGCLVKDYFPEPVTVSWNSGALTSGVHTFPAVLQSSGLYSLSSVVTVPSSSLGTQTYICNVNHKPSNTKVDKKVEPKSCDKTHTCPPCPAPEAAGAPSVFLFPPKPKDTLMISRTPEVTCVVVDVSHEDPEVKFNWYVDGVEVHNAKTKPREEQYNSTYRVVSVLTVLHQDWLNGKEYKCKVSNKALPAPIEKTISKAKGQPREPQVYTLPPCREEMTKNQVSLWCLVKGFYPSDIAVEWESNGQPENNYKTTPPVLDSDGSFFLYSKLTVDKSRWQQGNVFSCSVMHEALHNHYTQKSLSLSPGGGGGSGGGGSGGGGSAPTSSSTKKTQLQLEHLLHDLQMILNGINNYKNPKLTRMLTFKFYMPKKATELKHLQCLEEELKRLEEVLNLAQSKNFHLRPRDLISNINVIVLELKGSETTFMCEYADETATIVEFLNRWITFIQSIISTLT
heavy 2: B5 heavy 2
light: B5 light
[3]
  Ki67 EC50 (nM), CD8+ T: 77 nM
  Ki67 EC50 (nM), NK: 230 nM
  pSTA5 EC50 (pM), CD8+ T: 513 pM
  pSTA5 EC50 (pM), NK: 9920 pM

B7: P-0885 (antibody, human IgG1, kappa)
heavy 1: B6 heavy 1 with H480Q
heavy 2: B5 heavy 2
light: B5 light
[3]
  Ki67 EC50 (nM), CD8+ T: 9.3 nM
  Ki67 EC50 (nM), NK: 21 nM
  pSTA5 EC50 (pM), CD8+ T: 249 pM
  pSTA5 EC50 (pM), NK: 2330 pM

B8: P-0702 (Fc fusion)
chain 1: B1 chain with F276A, E296F, R299P, E360Q
chain 2: B1 Fc
notes: knob chain carries the IL-2 variant; hole-Fc; monovalent; also called IL-2 F42A/E62F/S125I monovalent Fc fusion
IL-2Rα-ECD
  Binding EC50 vs P-0689: > 500 fold (ratio of EC50s)
  binding result: no binding

B9: P-0703 (Fc fusion)
chain 1: B1 chain with F276A, R299H, E360Q
chain 2: B1 Fc
notes: knob chain carries the IL-2 variant; hole-Fc; monovalent; also called IL-2 F42A/P65H/S125I monovalent Fc fusion
IL-2Rα-ECD
  Binding EC50 vs P-0689: > 500 fold (ratio of EC50s)
  binding result: no binding

B10: P-0765 (Fc fusion)
chain 1: B1 chain with F276A, R299A, E360Q
chain 2: B1 Fc
notes: knob chain carries the IL-2 variant; hole-Fc; monovalent; also called IL-2 F42A/P65A/S125I monovalent Fc fusion
IL-2Rα-ECD
  Binding EC50 vs P-0689: 6.8 fold (ratio of EC50s)

B11: P-0766 (Fc fusion)
chain 1: B1 chain with F276A, E296A, R299P, E360Q
chain 2: B1 Fc
notes: knob chain carries the IL-2 variant; hole-Fc; monovalent; also called IL-2 F42A/E62A/S125I monovalent Fc fusion
IL-2Rα-ECD
  Binding EC50 vs P-0689: > 500 fold (ratio of EC50s)
  binding result: no binding

B12: P-0767 (Fc fusion)
chain 1: B1 chain with F276A, E296H, R299P, E360Q
chain 2: B1 Fc
notes: knob chain carries the IL-2 variant; hole-Fc; monovalent; also called IL-2 F42A/E62H/S125I monovalent Fc fusion
IL-2Rα-ECD
  Binding EC50 vs P-0689: > 500 fold (ratio of EC50s)
  binding result: no binding
